Data from patent US20230382979A1 (ADAPTIVE BIOTECHNOLOGIES, published 2023).
Substitutions are numbered along the chain they refer to.

B1: antibody 2050 (antibody, V domains shown)
VH: QVQLVQSGAEVKKPGASVKVPCKVSGYTFTDHFIHWVRQAPGQGLEWMGWISPNSGGRNYTQKFQGRVTLTRDTAITTVHMDLSSLTPDDTAVYYCARDVRWAQLQGGFDLWGQGTMVTVSS
VL: QSALTQPASVSGSPGQSITISCTGTSSDVGSYNLVSWYQQHPGKAPKLMIYEVSKRPSGVSNRFSGSKSGNTASLTISGLQADDEADYYCCSYAGDNNFLFGGGTSLTVL
B2: antibody 2794 (antibody, V domains shown)
VH: QVQLVQSGAEVKKPGSSLKVSCKASGGTFNNFAISWVRQAPGQGPEWMGRINPILSAAKYAQKFQGRLTITADKSTTTAYMELSSLRSEDTAVYYCAPTGTGESWWFDPWGQGTLVTVSS
VL: QSVLTQPPSASGTPGQRVTISCSGSSSNIGTNYVYWYQQLPGTAPKVLIYGNNQRPSGVPDRFSGSKSGSSASLAISGLRSEDEADYYCAAWDDSLSGPVFGGGTKLTVL
B3: antibody 941 (antibody, V domains shown)
VH: QVQLVQSGAEVKKPGSSVKVSCKASGGTFSNSAINWVRQAPGQGLEWMGGIIPLFGAADYAQKFQARVTITADKSTTTSYMELSSLRSEDTAVYYCARDTLEHDDVWGNFRLSLPLSFWGQGTLVTVSS
VL: not shown
B4: antibody 3995 (antibody, V domains shown)
VH: EVQLVQSGAEVKKPGSSVKVSCKASGGTFSMHTIRWVRQAPGQGLEWMGRIIPMLGIVNYAQKFQGRVTISADKSTSTAYMELSSLTSEDTAMYYCAKGSHDVFDIWGQGTMVTVSS
VL: not shown
B5: antibody 2075 (antibody, V domains shown)
VH: QVQLVQSGAEVKKPGSSVKVSCTASGGTFSIYAFSWVRQAPGQGLEWMGGIIPISGTAGYAQKFQGRVTITADESTSTAYMELSSLRSEDTAIYYCARKYRYCSGSRCYTYFDYWGQGTLVTVSS
VL: DIQMTQSPSSLSASVGDRVTITCRASQSISSFLNWYQQKPGKAPKLLIYAASSLQSGVPSRFSGSGSGTDFTLTISSLQPEDSATYYCQQSYSTITFGQGTRLEIK
B6: antibody 4042 (antibody, V domains shown)
VH: QITLKESGPTLVKPTQTLTLTCTFSGFSLSSGGVGVGWIRQPPGKALEWLALIYWDDDKRYRPSLKSRLTITRDTSTNQVVLTMTNMDPVDTATYFCARHQIATVFDHWGQGTLVTVSS
VL: QSALTQPASVSGSPGQSITISCTGTSSDVGGYNYVSWYQQHPGKAPKLMIYEVSNRPSGVSSRFSGSKSGNTASLTISGLQAEDEADYYCSSYTRSSPLVAFGGGTKVTVL
B7: antibody 2564 (antibody, V domains shown)
VH: QVQLVQSGAEVKKPGSSVRVSCKASGGTFISYTFNWVRQAPGQGLEWMGRIIPIFGIVNYAQKFQGRVTIAADKSTSTAYMELSSLRSEDTAMYYCATATVDYDSGEEQSSFDPWGQGTLVTVSS
VL: EIVLTQSPGTLSLSPGERATLSCRASQSVSSSYLAWYQQKAGQTPRLLIYAASSRATGVPDRFSGSGSGTDFTLTISRLEAEDFAVYYCQQSWTFGQGTKVEIK
B8: antibody 1888 (antibody, V domains shown)
VH: EVQLVESGGGLVKPGGSLRLSCAASGFTFSSYSMNWVRQAPGKGLEWVSYISSSSSYKYYADSVKGRFSVSRDNAKNSLYLQLNGLRVEDTAVYYCARDGYCPKGVCTYYGMDVWGQGTTVTVSA
VL: EIVMTQSPATLSVSPGERATLSCRASQSVRSRLAWFQQKPGQPPRLLIYDASIRATGIPDRFSGSGSGTEFTLIISGLQSEDFAVYYCQQYDNWPPAYTFGQGTKLEIK
B9: antibody 3091 (antibody, V domains shown)
VH: QMQLVQSGPEVKKPGTSVKVSCKASGFTFSSSAVQWVRQARGQGLEWIGWIVVGSGNANYAQKLQERVSITRDMSTSTAYMELSSLRPEDTAVYYCAAPHCSRTICHDGFDMWGQGTMVTVSS
VL: EIVLTQSPGTLSLSPGERATLSCRASQSVRSSYLAWYQQKPGQAPRLLMFVASSRATGIPDRFSGSGSGTDFTLTISRLEPEDFAVYYCQQYDTSPWTFGQGTKVEIK
B10: antibody 1969 (antibody, V domains shown)
VH: QVQLVQSGAEVKKPGASVKVSCKASGYSFTDYYIHWVRQAPGQGLEWMGIIKPSAGATVYAQKFRGRVSMTSDTSTGTVYMELSGLKSEDTAVYYCARDYNRSFDFWGQGTLVTVSS
VL: QSVLTQPPSVSAAPGQTVTISCAGSTSNIGKNYVSWYQHLPGTAPKLLIYDNIKRPSGIPDRFSGSTSGTSATLGITELQTGDEADYYCGTWDSSLSAYVFGTGTKVTVL
B11: antibody 1856 (antibody, V domains shown)
VH: B8 VH with Q3R, T28S, S31L, S33T, K58R, S78T, Q82E, L83M, V88A, K104R
VL: EIVMTQSPATLSVSPGERATLSCRASQTIGIRLAWYQQKPGQAPRLLIYDATIRATGIPARFSGSGSGTDFTLTISGLQSEDFAVYYCQRYNNWPPVYTFGQGTKLEMK
B12: antibody 1867 (antibody, V domains shown)
VH: B8 VH with T28S, S31T, S33T, K58R, K65R, L83M, K104N, A125S
VL: not shown
B13: antibody 1963 (antibody, V domains shown)
VH: QVQLVQSGAEVKKPGASVKVSCKASGYTFTSNYIHWLRQAPGQGLEWMGIIKPSGTSTISAQKFRGRVAMTRDTSTSTVYMELSSLRFEDTAIYYCARDAKRALETWGQGTMVTVSS
VL: QSVLTQPPSVSAAPGQKVTISCSGSSSNIGNNYVSWYQQLPGTAPKLLIYDNNKRPSGIPDRFSGSRSGTSATLGITGLQTGDEADYYCGTWDSSLSAWVFGGGTKLTVL

target: SARS-CoV-2 spike protein, WA1/2020, borne on lentiviral pseudovirus (SARS-CoV-2, WA01/2020 strain, UniProt P0DTC2 14-1273); test: cell-based or functional assay

Binder	Pseudo Neut, WA1/2020 IC50 (pM)
B1	427
B2	232
B3	610
B4	3120
B5	783
B6	209
B7	160
B8	> 111
B9	59

target: SARS-CoV (2003) spike protein borne on lentiviral pseudovirus (SARS-CoV (2003), UniProt P59594 14-1255); test: cell-based or functional assay

Binder	Pseudo Neut, SARS-CoV 2003 IC50 [nM]
B10	97
B11	> 111
B12	135
B8	> 111
B13	69

target: T1, S2 subunit of the SARS-CoV-2 spike protein, WA01/2020 strain (SARS-CoV-2, WA01/2020 strain, UniProt P0DTC2 686-1213); test: ELISA, antibody at 0.1 ug/mL

Binder	binding result
B1	no binding (tested: 0.1 ug/mL)
B2	no binding (tested: 0.1 ug/mL)
B3	no binding (tested: 0.1 ug/mL)
B4	no binding (tested: 0.1 ug/mL)
B5	no binding (tested: 0.1 ug/mL)
B6	no binding (tested: 0.1 ug/mL)
B7	no binding (tested: 0.1 ug/mL)
B9	no binding (tested: 0.1 ug/mL)

target: T2, SARS-CoV-2 nucleocapsid (N) protein (SARS-CoV-2, UniProt P0DTC9 1-419); test: ELISA, antibody at 0.1 ug/mL

Binder	binding result
B1	no binding (tested: 0.1 ug/mL)
B2	no binding (tested: 0.1 ug/mL)
B3	no binding (tested: 0.1 ug/mL)
B4	no binding (tested: 0.1 ug/mL)
B5	no binding (tested: 0.1 ug/mL)
B6	no binding (tested: 0.1 ug/mL)
B7	no binding (tested: 0.1 ug/mL)
B9	no binding (tested: 0.1 ug/mL)

target: S1 subunit of the SARS-CoV-2 spike protein, WA01/2020 strain (SARS-CoV-2, WA01/2020 strain, UniProt P0DTC2 16-685); test: ELISA screening, antibody concentration not given

Binder	binding result
B10	no binding (tested: not printed)
B11	no binding (tested: not printed)
B12	no binding (tested: not printed)
B8	no binding (tested: not printed)
B13	no binding (tested: not printed)

target: T2, SARS-CoV-2 nucleocapsid (N) protein; test: ELISA screening, antibody concentration not given

Binder	binding result
B10	no binding (tested: not printed)
B11	no binding (tested: not printed)
B12	no binding (tested: not printed)
B8	no binding (tested: not printed)
B13	no binding (tested: not printed)

target: T1, S2 subunit of the SARS-CoV-2 spike …; test: dose-response ELISA; antigen taken from the column 'Structural data'

Binder	EC50 [nM]
B10	0.035
B12	1.09
B13	0.041
